Reference: US20200408769A1
Each block holds one substance with its values, some of them ahead of it.

Columns and labels:
Assay in all cases: cell-based or functional assay
[1] = target: EpCAM (Epithelial Cell Adhesion Molecule) (human) (UniProt P16422)
[2] = target: SDC1 (Syndecan 1) (human) (UniProt P18827)
[3] = target: TM4SF1 (Transmembrane 4 L six family member 1) (human) (UniProt P30408)
[4] = target: TNFRSF12A (TNF receptor superfamily member 12A) (human) (UniProt Q9NP84)
Chain of UniProt Q9NP84 (Q9NP84 28-129 limits assumed): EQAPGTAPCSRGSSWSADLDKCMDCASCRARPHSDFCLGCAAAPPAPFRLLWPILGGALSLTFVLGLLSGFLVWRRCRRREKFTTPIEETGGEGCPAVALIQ

Chain of UniProt P16422 (P16422 24-314): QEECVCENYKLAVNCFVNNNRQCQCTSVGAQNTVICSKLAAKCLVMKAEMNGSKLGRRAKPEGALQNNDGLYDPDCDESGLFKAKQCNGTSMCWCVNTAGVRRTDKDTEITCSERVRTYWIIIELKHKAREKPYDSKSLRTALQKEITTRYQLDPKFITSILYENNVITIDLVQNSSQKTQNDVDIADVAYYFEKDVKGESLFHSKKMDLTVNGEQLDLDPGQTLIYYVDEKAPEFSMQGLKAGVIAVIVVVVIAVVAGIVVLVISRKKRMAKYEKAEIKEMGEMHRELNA
Chain of UniProt P30408 (P30408 whole entry): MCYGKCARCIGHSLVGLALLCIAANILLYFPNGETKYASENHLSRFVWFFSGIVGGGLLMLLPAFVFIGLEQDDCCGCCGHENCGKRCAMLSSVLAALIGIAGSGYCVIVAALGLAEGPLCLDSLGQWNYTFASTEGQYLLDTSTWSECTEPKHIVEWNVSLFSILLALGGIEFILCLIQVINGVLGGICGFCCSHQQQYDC
Chain of UniProt P18827 (P18827 23-310 L136Q limits assumed): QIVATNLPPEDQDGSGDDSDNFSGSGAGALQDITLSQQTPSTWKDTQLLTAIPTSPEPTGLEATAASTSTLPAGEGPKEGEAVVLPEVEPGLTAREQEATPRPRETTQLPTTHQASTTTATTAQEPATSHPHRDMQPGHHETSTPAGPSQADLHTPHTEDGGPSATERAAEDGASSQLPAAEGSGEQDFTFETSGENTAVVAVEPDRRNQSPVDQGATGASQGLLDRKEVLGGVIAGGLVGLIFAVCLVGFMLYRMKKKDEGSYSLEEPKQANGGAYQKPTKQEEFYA

- PANC1 cell collection ratio [%] [1]: 49%
- PC3 cell collection ratio [%] [1]: 42%
Substance: anti-EpCAM antibody (PE-anti-human EpCAM Antibody, Miltenyi Biotec)

- PC3 cell collection ratio [%] [2]: 64%
Substance: anti-SDC1 antibody (PE-anti-human SDC1 Antibody, Biolegend)

- PANC1 cell collection ratio [%] [3]: 66%
- PC3 cell collection ratio [%] [3]: 76%
Substance: anti-TM4SF1 antibody (Human TM4SF1 Phycoerythrin MAb, R&D systems)

- PANC1 cell collection ratio [%] [4]: 74.1%
- PC3 cell collection ratio [%] [4]: 48%
Substance: anti-TNFRSF12A antibody (PE anti-human CD266 (Fn14, TWEAK R) Antibody, Biolegend)
